Experimental data reported in patent publication US7803571B2, “Method for identifying IRS inhibitors or agonists” (Sanfoi-Aventis Deutschland GmbH, priority 2003, dated 2010).
Like-named read-outs stand apart in the source and are kept apart here. Square brackets hold non-standard residues; d marks the D form. Peptide text beside a SMILES is read from it. pY = N[C@@H](Cc1ccc(OP(=O)(O)O)cc1)C(=O)O; pS = N[C@@H](COP(=O)(O)O)C(=O)O

Legend:
p85α [1] = biological target: T1, p85α (Bos taurus, UniProt P23727); assay: Surface plasmon resonance competition assay: binding of 100 nM p85α to immobilized IRS-1 peptides in the presence of competing soluble peptide; set-up: species or system bovine; settings: SPR response at equilibrium 440 s after injection, competitor identical to immobilized peptide
T1 construct: GST (N, cleaved yes); made in house; host or cells: Escherichia coli BL21
Description: The principle of operation of the BIAcore™ biosensor (Biacore, Freiburg, Germany) has been described previously (42). To avoid the interfering dimerization of the GST part of the fusion protein, it was cleaved with thrombin during the purification. Because of the known extremely fast association rates of SH2-domains to phosphopeptides the relative affinities were assessed by competition assay (43). Therefore, a constant concentration of p85α (100 nM) was incubated in running buffer (0.01 M Hepes pH 7.4, 0.15 M NaCl, 3 mM EDTA, 0.005% Surfactant P20 (HBS-EP)) with a variable concentration of the competitor peptide (50 nM-10 μM), which was identical to that bound on the CM5 sensor chip surface. After a 1 h preincubation at room temperature the various mixtures were then injected sequentially at a flow rate of 5 μl/min at 25° C. in HBS-EP buffer. The used peptides DDGYMPMSPGV (SEQ ID NO: 7), DDGpYMPMSPGV, DDGYMPMpSPGV and DDGpYMPMpSPGV, representing the amino acids 605 to 615 of rat IRS-1, were synthesized on an Applied Biosystems model 433 peptide synthesizer. All peptides were immobilized with a concentration of 5 mg/ml in 100 mM […] (NaOH pH 8.5) at 1 μl/min by standard amine coupling procedure as described by the manufacturer. Regeneration after each binding experiment was performed by injection of 6 M guanidine hydrochloride for 2 min. The kinetic analysis of the p85α with pY608 and […] interaction has been performed using the BIAevaluation 3.1 software (Biacore, Freiburg, Germany) and GraphPad Prism 3.0 (San Diego, Calif., USA).
The inventors then determined the relative binding affinity of this reaction by monitoring the binding of 100 nM p85α to the peptides pY608 (DDGpYMPMSPGV) and pY608-pS612 (DDGpYMPMpSPGV) in the presence of competing soluble peptides (FIGS. 6D, E, F). Half-maximum inhibitory concentrations (IC50) were obtained by plotting the SPR response 440 s after injection at equilibrium versus the log peptide concentration. […] Solubilized peptides inhibited binding of p85α to the immobilized peptides at micromolar concentrations. […] In order to identify additional PKC-ζ phosphorylation sites on rIRS-1^449-664 that might promote the inhibition of insulin-stimulated tyrosine phosphorylation in the in vitro system, rIRS-1^449-664 was incubated with PKC-ζ and separated by SDS-PAGE. Phosphorylated rIRS-1^449-664 was digested with trypsin and extracted from the gel. The peptides generated by digestion were resolved by two dimensional HPLC and the content of radioactivity in the fractions was monitored by Cerenkov counting. […] To separate comigrating peptides, radioactive fractions of each peak were pooled according to the elution profile and subjected to reversed phase (RP)-HPLC (FIG. 7B). […]

insulin receptor = biological target: T2, insulin receptor (Rattus norvegicus, UniProt P15127); assay: In vitro phosphorylation assay: tyrosine phosphorylation of rIRS-1^449-664 by insulin receptor; type: biochemical
T2 construct: from tissue; host or cells: rat liver
Description: Rat liver was rapidly removed, immediately frozen in liquid nitrogen and processed as described (41). Briefly, 3.5 vol/wt of an ice-cold buffer consisting of 50 mM Hepes (pH 7.4), 1% Triton X-100 and 2× Complete Protease Inhibitors was added and the liver was homogenized using an Ultraturrax and a Potter-Elvehjem homogenizer, followed by centrifugation at 10,000×g for 10 min at 4° C. The resultant supernatant was slowly stirred at room temperature for 60 min, then again centrifuged at 100,000×g for 90 min at 4° C. The supernatant was then applied to an agarose-bound wheat germ agglutinin (WGA) column. The column was washed with 50 mM Hepes (pH 7.4), 0.1% Triton X-100, and bound glycoproteins were eluted from the WGA column with this buffer containing 0.3 M N-acetylglucoseamine.
For rIRS-1^449-664 phosphorylation by insulin receptor, […] of the WGA-purified glycoprotein fraction was preincubated for 30 min at 30° C. with 100 nM of insulin in a phosphorylation buffer containing 20 mM Hepes (pH 7.4), 1 mM DTT, 10 mM MgCl2, 100 μg/ml bovine serum albumin, 0.2 mM Na3VO4, 1.7 mM CaCl2, 0.6 mg/ml phosphatidylserine, and 0.5 μg/ml okadaic acid. Autophosphorylation was initiated by the addition of ATP at a concentration of 50 μM and continued for 10 min at 30° C. Substrate phosphorylations were initiated by addition of equal volumes of […] (1 μg) with or without pre-treatment (30 min) by the PKC isoforms in the same buffer in the presence of 50 μM ATP and was allowed to proceed for 10 min at 30° C. in a final volume of 50 μl. The reaction was terminated by the addition of 6× sample buffer (0.35 M Tris-HCl (pH 6.8), 10.28% (w/v) SDS, 36% (v/v) glycerol; 0.6 M DTT, 0.012% (w/v) bromphenol blue) and boiling for 5 min. Proteins were separated by SDS-PAGE and analyzed by immunodetection with an anti-phosphotyrosine antibody after transfer to nitrocellulose. Serine/threonine phosphorylation of rIRS-1^449-664 by different PKC isoforms was assessed by incubating 1 μg rIRS-1^449-664 with 0.5 μg PKC-rb or PKC-ζ in phosphorylation buffer for 30 min at 30° C. in the presence of 50 μM ATP plus 2 μCi [γ-^32P]ATP in a volume of 20 μl. Proteins were resolved by SDS-PAGE and the stained and dried gels were subjected to autoradiography. The extent of phosphate incorporation was determined by Cerenkov counting of excised fragments.
Proteins were separated by SDS-PAGE using 8-18% gradient gels followed by transfer to nitrocellulose in a semi-dry blotting apparatus. […] All blots were quantified using the Lumilmager software. Significance of reported differences was evaluated by using the null hypothesis and t statistics for unpaired data. […]

p85α [2] = biological target: T1, p85α; assay: GST pull down assay: interaction of rIRS-1^449-664 with p85α; type: binding, bovine; settings: for p85α binding after PKC-ζ treatment, % of control: insulin-stimulated control value set as 100%, n=3
Description: In vitro phosphorylated rIRS-1^449-664 was incubated with glutathione sepharose beads on a rotator for 1 h at 4° C. Pellets were washed three times with binding buffer (50 mM Tris (pH 7.4), 150 mM NaCl, 1% (v/v) Nonidet P-40, 1 mM EDTA, 1 mM NaF, 1 mM Na3VO4). Then 0.5 μg recombinant p85α was added and incubation was continued for 2 h at 4° C. After three times washing, the bound proteins were eluted with 20 μl of 2× sample buffer and separated by SDS-PAGE.
Proteins were separated by SDS-PAGE using 8-18% gradient gels followed by transfer to nitrocellulose in a semi-dry blotting apparatus. The membrane was then blocked 60 min in Tris-buffered saline containing 0.05% Tween 20 and 1% BSA or 5% non fat dry milk and probed with appropriate antibodies (anti-IRS-1, anti-pTyr, anti-p85α). After extensive washing, the membranes were incubated with horseradish peroxidase-conjugated secondary antibodies, again washed and then the protein bands were visualized by the enhanced chemiluminescence (ECL) method on a Lumilmager workstation (Boehringer, Mannheim, Germany). All blots were quantified using the Lumilmager software. Significance of reported differences was evaluated by using the null hypothesis and t statistics for unpaired data. A p value less than 0.05 was considered to be statistically significant.

IR β-subunit = biological target: T3, IR β-subunit (Rattus norvegicus, UniProt P15127); assay: Autophosphorylation of IR β-subunit in the presence of PKC isoforms; type: biochemical; settings: autoactivated receptor incubated 10 min at 30° C. with PKC
T3 construct: from tissue; host or cells: rat liver
Description: (A) Autophosphorylation of IR was conducted as outlined in FIG. 2. Either PKC-rb or PKC-ζ was added after 10 min of autophosphorylation and incubation was continued for another 10 min. Tyrosine phosphorylation of IR β-subunit was then analyzed by immunoblotting. (B) Quantification of blots was obtained using Lumi Imager software. Data are mean values±SEM (n=4-6).
For rIRS-1^449-664 phosphorylation by insulin receptor, […] of the WGA-purified glycoprotein fraction was preincubated for 30 min at 30° C. with 100 nM of insulin in a phosphorylation buffer containing 20 mM Hepes (pH 7.4), 1 mM DTT, 10 mM MgCl2, 100 μg/ml bovine serum albumin, 0.2 mM Na3VO4, 1.7 mM CaCl2, 0.6 mg/ml phosphatidylserine, and 0.5 μg/ml okadaic acid. Autophosphorylation was initiated by the addition of ATP at a concentration of 50 μM and continued for 10 min at 30° C. […] Proteins were separated by SDS-PAGE and analyzed by immunodetection with an anti-phosphotyrosine antibody after transfer to nitrocellulose. Serine/threonine phosphorylation of rIRS-1^449-664 by different PKC isoforms was assessed by incubating 1 μg rIRS-1^449-664 with 0.5 μg PKC-rb or PKC-ζ in phosphorylation buffer for 30 min at 30° C. in the presence of 50 μM ATP plus 2 μCi [γ-^32P]ATP in a volume of 20 μl. […] The extent of phosphate incorporation was determined by Cerenkov counting of excised fragments.

[3] = read-out: IC50, inhibition of p85α binding by soluble peptide, two site competition fit, first value
[4] = read-out: IC50, inhibition of p85α binding by soluble peptide, two site competition fit, second value
[5] = rIRS-1^449-664 preincubated with 0.5 μg PKC for 30 min, insulin-stimulated value set as 100%

T2 sequence (P15127 27-759 limits assumed): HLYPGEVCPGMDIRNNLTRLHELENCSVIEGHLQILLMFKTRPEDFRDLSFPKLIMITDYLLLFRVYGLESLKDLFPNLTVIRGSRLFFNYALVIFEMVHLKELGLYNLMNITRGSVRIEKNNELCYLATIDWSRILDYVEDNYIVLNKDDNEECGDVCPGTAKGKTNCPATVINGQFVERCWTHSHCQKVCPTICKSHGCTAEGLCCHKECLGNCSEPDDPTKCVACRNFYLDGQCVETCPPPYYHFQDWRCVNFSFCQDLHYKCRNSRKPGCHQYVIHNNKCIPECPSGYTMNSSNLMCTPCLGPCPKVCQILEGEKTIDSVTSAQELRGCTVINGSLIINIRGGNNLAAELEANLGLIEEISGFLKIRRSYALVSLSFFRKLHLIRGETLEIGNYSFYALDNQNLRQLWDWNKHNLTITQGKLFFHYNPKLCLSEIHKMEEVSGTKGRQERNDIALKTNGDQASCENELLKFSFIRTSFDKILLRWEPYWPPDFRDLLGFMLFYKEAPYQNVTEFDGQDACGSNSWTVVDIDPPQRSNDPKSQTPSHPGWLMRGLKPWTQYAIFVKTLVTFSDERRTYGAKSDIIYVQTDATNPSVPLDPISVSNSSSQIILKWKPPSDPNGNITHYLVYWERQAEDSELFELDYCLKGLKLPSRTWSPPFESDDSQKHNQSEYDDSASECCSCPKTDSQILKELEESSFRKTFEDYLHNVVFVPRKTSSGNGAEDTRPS
T1 sequence (P23727 whole entry): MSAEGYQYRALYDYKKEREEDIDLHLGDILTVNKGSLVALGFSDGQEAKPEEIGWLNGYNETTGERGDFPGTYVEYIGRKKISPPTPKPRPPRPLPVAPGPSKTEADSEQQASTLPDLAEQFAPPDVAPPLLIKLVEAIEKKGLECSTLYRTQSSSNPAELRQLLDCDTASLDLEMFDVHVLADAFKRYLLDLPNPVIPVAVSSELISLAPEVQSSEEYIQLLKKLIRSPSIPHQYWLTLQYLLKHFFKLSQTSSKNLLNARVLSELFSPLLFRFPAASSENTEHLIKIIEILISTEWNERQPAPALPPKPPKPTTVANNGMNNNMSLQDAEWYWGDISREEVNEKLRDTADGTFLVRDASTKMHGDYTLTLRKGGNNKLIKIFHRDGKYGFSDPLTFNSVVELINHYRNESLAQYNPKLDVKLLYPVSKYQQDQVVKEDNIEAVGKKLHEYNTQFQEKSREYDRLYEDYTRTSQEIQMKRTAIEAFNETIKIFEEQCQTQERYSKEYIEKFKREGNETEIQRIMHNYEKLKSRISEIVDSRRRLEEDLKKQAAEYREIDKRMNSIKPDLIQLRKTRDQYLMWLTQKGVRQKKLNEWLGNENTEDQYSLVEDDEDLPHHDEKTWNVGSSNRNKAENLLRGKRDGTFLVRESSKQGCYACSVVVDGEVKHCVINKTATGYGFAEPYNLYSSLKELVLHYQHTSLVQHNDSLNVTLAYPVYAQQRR
T3 sequence (P15127 27-759 limits assumed): as the sequence (P15127 27-759 limits assumed) above

Molecule	IC50 (p85α [1]; [3])	IC50 (p85α [1]; [4])	p85α binding after PKC-ζ treatment, % of control (p85α [2])	also measured
CSCC[C@H](NC(=O)[C@@H]1CCCN1C(=O)[C@H](CCSC)NC(=O)[C@H](Cc1ccc(OP(=O)(O)O)cc1)NC(=O)CNC(=O)[C@H](CC(=O)O)NC(=O)[C@@H](N)CC(=O)O)C(=O)N[C@@H](CO)C(=O)N1CCC[C@H]1C(=O)NCC(=O)N[C@H](C(=O)O)C(C)C [pY608, DDGpYMPMSPGV] (H-DDG[pY]MPMSPGV-OH; N-terminus and C-terminus assumed)	0.26 µM	16.6 µM		
CSCC[C@H](NC(=O)[C@@H]1CCCN1C(=O)[C@H](CCSC)NC(=O)[C@H](Cc1ccc(OP(=O)(O)O)cc1)NC(=O)CNC(=O)[C@H](CC(=O)O)NC(=O)[C@@H](N)CC(=O)O)C(=O)N[C@@H](COP(=O)(O)O)C(=O)N1CCC[C@H]1C(=O)NCC(=O)N[C@H](C(=O)O)C(C)C [pY608-pS612, DDGpYMPMpSPGV] (H-DDG[pY]MPM[pS]PGV-OH)	0.15 µM	2.88 µM		
PKC-ζ: recombinant human protein kinase C-ζ, obtained from Calbiochem (protein) MPSRTGPKMEGSGGRVRLKAHYGGDIFITSVDAATTFEELCEEVRDMCRLHQQHPLTLKWVDSEGDPCTVSSQMELEEAFRLARQCRDEGLIIHVFPSTPEQPGLPCPGEDKSIYRRGARRWRKLYRANGHLFQAKRFNRRAYCGQCSERIWGLARQGYRCINCKLLVHKRCHGLVPLTCRKHMDSVMPSQEPPVDDKNEDADLPSEETDGIAYISSSRKHDSIKDDSEDLKPVIDGMDGIKISQGLGLQDFDLIRVIGRGSYAKVLLVRLKKNDQIYAMKVVKKELVHDDEDIDWVQTEKHVFEQASSNPFLVGLHSCFQTTSRLFLVIEYVNGGDLMFHMQRQRKLPEEHARFYAAEICIALNFLHERGIIYRDLKLDNVLLDADGHIKLTDYGMCKEGLGPGDTTSTFCGTPNYIAPEILRGEEYGFSVDWWALGVLMFEMMAGRSPFDIITDNPDMNTEDYLFQVILEKPIRIPRFLSVKASHVLKGFLNKDPKERLGCRPQTGFSDIKSHAFFRSIDWDLLEKKQALPPFQPQITDDYGLDNFDTQFTSEPVQLTPDDEDAIKRIDQSEFEGFEYINPLLLSTEESV				Reduction of insulin-stimulated tyrosine phosphorylation of rIRS-1^449-664 by PKC pretreatment (insulin receptor; [5]): 46±5%; Inhibition of p85α association with rIRS-1^449-664 by PKC pretreatment (p85α [2]; [5]): 81±1%; Alteration of IR autophosphorylation compared to controls (IR β-subunit): No significant alteration
rIRS-1^449-664: glutathione S-transferase (GST) fusion protein containing the amino acids 449-664 of rat IRS-1 (SEQ ID NO: 17) (protein, left off: a dimerising Fc or GST) PPARGEEELSNYICMGGKGASTLTAPNGHYILSRGGNGHRYIPGATMGTSPALTGDEAAGAADLDNRFRKRTHSAGTSPTISHQKTPSQSSVVSIEEYTEMMPAAYPPGGGSGGRLPGYRHSAFVPTHSYPEEGLEMHHLERRGGHHRPDSSNLHTDDGYMPMSPGVAPVPSNRKGNGDYMPMSPKSVSAPQQIINPIRRHPQRVDPNGYMMMSPS				Insulin-stimulated tyrosine phosphorylation, stimulation over basal (insulin receptor; WGA-purified insulin receptor, 100 nM insulin, n=10): 8.8±1.1 fold; Reduction of tyrosine phosphorylation by IR after PKC-ζ pretreatment (insulin receptor; wild type and mutant fusion proteins as substrate, relative to insulin-stimulated control): 30-40%; Interaction of p85α with the tyrosine phosphorylated fusion protein (p85α [2]; after insulin-stimulated tyrosine phosphorylation by IR): significant increase
S570A: serine 570 to alanine mutant of rIRS-1^449-664 GST fusion protein (protein, UniProt P35570 449-664, looked up, variant S570A, GST fusion, serine 570 to alanine mutant of rIRS-1^449-664 GST fusion protein) PPARGEEELSNYICMGGKGASTLTAPNGHYILSRGGNGHRYIPGATMGTSPALTGDEAAGAADLDNRFRKRTHSAGTSPTISHQKTPSQSSVVSIEEYTEMMPAAYPPGGGSGGRLPGYRHAAFVPTHSYPEEGLEMHHLERRGGHHRPDSSNLHTDDGYMPMSPGVAPVPSNRKGNGDYMPMSPKSVSAPQQIINPIRRHPQRVDPNGYMMMSPS			43±4 % of control	
S612A: serine 612 to alanine mutant of rIRS-1^449-664 GST fusion protein (protein, UniProt P35570 449-664, looked up, variant S612A, GST fusion, serine 612 to alanine mutant of rIRS-1^449-664 GST fusion protein) PPARGEEELSNYICMGGKGASTLTAPNGHYILSRGGNGHRYIPGATMGTSPALTGDEAAGAADLDNRFRKRTHSAGTSPTISHQKTPSQSSVVSIEEYTEMMPAAYPPGGGSGGRLPGYRHSAFVPTHSYPEEGLEMHHLERRGGHHRPDSSNLHTDDGYMPMAPGVAPVPSNRKGNGDYMPMSPKSVSAPQQIINPIRRHPQRVDPNGYMMMSPS			28±3 % of control	
